{"source": "paper PMC11969061", "origin": "cited, not measured here", "molecular_target": "BTN3A IgV (Homo sapiens) (UniProt O00481)", "sequence (O00481 30-139)": "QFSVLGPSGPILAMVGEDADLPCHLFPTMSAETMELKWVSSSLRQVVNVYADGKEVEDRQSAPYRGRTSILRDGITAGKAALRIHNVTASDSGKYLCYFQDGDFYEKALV", "data": [{"substance": "BTN2A1 IgV (from UniProt Q7KYR7)", "values": [{"measurement": "Kd", "value": 600, "unit": "µM"}]}]}
